Measurements published in US20200339636A1 (CHILDREN S MEDICAL CENTER, published 2020).

B2: sTcdB (TcdB residues 1285-1804), wild type, with C-terminal HA tag (other)
chain: TNIRINLDSNTRSFIVPIITTEYIREKLSYSFYGSGGTYALSLSQYNMGINIELSESDVWIIDVDNVVRDVTIESDKIKKGDLIEGILSTLSIEENKIILNSHEINFSGEVNGSNGFVSLTFSILEGINAIIEVDLLSKSYKLLISGELKILMLNSNHIQQKIDYIGFNSELQKNIPYSFVDSEGKENGFINGSTKEGLFVSELPDVVLISKVYMDDSKPSFGYYSNNLKDVKVITKDNVNILTGYYLKDDIKISLSLTLQDEKTIKLNSVHLDESGVAEILKFMNRKGNTNTSDSLMSFLESMNIKSIFVNFLQSNIKFILDANFIISGTTSIGQFEFICDENDNIQPYFIKFNTLETNYTLYVGNRQNMIVEPNYDLDDSGDISSTVINFSQKYLYGIDSCVNKVVISPNIYTDEINITPVYETNNTYPEVIVLDANYINEKINVNINDLSIRYVWSNDGNDFILMSTSEENKVSQVKIRFVNVFKDKTLANKLSFNFSDKQDVPVSEIILSFTPSYY

What was measured:
[1] = target: T1, FZD2^CRD-Fc (recombinant human, R&D Systems) (human, UniProt Q14332 24-162); test: BLI, FZD2CRD-Fc (20 µg/ml) on anti-hIgG-Fc biosensor, then 20 µg/ml Wnt3A
T1 construct: domain: CRD; also called Fc-tagged CRD2; CRD2; not shown: Fc tag of the bought protein

[2] = target: T1, FZD2^CRD-Fc (recombinant human, R&D …); test: BLI (Blitz), FZD2CRD-Fc on anti-hIgG-Fc biosensor
[3] = target: T1, FZD2^CRD-Fc (recombinant human, R&D …); test: BLI (Blitz), FZD2CRD-Fc on anti-hIgG-Fc biosensor; kon error printed 1.69 x 10^3
[4] = target: T1, FZD2^CRD-Fc (recombinant human, R&D …); test: BLI, FZD2 CRD-Fc on anti-hIgG-Fc biosensor
[5] = target: T1, FZD2^CRD-Fc (recombinant human, R&D …)
[6] = target: B2; test: pull-down on Protein G beads and BLI, FZD5 CRD-Fc with or without PAM or Wnt3A
[7] = target: Recombinant full length TcdB (C. difficile strain VPI 10463), 6xHis-tagged (Clostridium difficile strain VPI 10463, UniProt P18177 1-2366); test: BLI, FZD5 CRD-Fc with or without Wnt3A
Chain of Recombinant full length TcdB (C. difficile strain VPI 10463), 6xHis-tagged (P18177 whole entry): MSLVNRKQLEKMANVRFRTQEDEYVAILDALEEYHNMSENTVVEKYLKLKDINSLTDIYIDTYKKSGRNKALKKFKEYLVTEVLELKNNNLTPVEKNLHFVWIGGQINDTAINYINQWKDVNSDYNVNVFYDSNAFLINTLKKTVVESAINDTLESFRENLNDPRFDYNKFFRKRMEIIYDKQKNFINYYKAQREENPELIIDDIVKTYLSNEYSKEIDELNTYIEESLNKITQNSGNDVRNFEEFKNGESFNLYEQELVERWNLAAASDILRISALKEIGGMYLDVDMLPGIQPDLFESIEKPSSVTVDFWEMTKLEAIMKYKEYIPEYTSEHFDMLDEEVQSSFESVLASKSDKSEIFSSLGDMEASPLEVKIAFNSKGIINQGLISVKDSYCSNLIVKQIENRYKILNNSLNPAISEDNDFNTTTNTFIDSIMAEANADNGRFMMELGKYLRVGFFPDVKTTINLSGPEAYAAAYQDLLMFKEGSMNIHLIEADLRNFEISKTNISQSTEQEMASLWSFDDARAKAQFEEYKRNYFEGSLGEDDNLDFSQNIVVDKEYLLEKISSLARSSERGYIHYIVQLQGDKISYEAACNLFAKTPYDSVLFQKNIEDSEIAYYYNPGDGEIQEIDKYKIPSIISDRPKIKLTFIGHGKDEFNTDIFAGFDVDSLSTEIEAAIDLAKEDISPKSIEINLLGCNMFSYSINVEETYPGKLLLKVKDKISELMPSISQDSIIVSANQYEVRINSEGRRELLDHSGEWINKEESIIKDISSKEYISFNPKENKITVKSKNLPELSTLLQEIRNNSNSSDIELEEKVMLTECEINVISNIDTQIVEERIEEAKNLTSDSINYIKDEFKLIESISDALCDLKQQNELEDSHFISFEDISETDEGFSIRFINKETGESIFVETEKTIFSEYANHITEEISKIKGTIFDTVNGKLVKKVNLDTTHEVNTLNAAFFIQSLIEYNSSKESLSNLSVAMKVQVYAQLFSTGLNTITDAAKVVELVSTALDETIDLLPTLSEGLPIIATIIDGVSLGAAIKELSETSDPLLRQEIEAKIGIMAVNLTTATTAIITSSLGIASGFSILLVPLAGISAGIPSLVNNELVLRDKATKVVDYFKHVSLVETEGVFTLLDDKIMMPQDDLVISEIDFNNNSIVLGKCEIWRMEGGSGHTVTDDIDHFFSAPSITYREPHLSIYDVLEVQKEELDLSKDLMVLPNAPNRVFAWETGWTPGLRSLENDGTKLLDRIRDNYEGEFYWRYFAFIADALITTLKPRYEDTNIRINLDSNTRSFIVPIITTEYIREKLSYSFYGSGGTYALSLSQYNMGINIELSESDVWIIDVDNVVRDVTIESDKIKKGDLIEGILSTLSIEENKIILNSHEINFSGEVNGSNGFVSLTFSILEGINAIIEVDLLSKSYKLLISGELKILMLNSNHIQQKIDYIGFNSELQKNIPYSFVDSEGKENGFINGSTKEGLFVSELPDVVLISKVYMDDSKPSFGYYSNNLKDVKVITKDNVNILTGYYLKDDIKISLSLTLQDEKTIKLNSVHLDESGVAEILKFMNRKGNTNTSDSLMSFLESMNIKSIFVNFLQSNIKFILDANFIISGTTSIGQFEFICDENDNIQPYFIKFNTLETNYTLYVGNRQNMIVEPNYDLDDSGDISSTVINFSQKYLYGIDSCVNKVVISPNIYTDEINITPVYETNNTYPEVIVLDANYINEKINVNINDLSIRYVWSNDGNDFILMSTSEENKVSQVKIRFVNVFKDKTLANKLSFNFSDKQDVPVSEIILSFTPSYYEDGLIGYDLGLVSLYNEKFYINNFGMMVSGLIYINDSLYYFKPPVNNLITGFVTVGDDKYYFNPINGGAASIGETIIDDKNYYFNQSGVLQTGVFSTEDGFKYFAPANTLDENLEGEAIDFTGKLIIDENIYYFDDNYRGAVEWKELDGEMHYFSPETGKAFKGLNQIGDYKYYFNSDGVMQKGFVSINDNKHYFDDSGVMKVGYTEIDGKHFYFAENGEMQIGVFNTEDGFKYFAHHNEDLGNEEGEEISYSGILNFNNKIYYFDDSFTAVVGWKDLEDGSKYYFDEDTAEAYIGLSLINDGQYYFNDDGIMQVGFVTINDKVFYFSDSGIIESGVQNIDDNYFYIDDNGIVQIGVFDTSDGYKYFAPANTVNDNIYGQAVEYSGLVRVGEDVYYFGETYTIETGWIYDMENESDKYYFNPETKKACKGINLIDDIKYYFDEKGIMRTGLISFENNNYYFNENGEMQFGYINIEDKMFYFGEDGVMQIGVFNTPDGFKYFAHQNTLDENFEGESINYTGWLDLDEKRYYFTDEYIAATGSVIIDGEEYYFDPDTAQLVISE

[8] = target: B2; test: BLI, CRD-Fc with or without Wnt3A
[9] = target: T2, His-tagged CRD2 (CRD of human Frizzled 2, residues 24-156) (human, UniProt Q14332 24-156); test: pull down by His-CRD2
T2 construct: range 24-156

B1: Wnt3A (recombinant human, StemRD) (ligand)
chain: SYPIWWSLAVGPQYSSLGSQPILCASIPGLVPKQLRFCRNYVEIMPSVAEGIKIGIQECQHQFRGRRWNCTTVHDSLAIFGPVLDKATRESAFVHAIASAGVAFAVTRSCAEGTAAICGCSSRHQGSPGKGWKWGGCSEDIEFGGMVSREFADARENRPDARSAMNRHNNEAGRQAIASHMHLKCKCHGLSGSCEVKTCWWSQPDFRAIGDFLKDKYDSASEMVVEKHRESRGWVETLRPRYTYFKVPTERDLVYYEASPNFCEPNPETGSFGTRDRTCNVSSHGIDGCDLLCCGRGHNARAERRREKCRCVFHWCCYVSCQECTRVYDVHTCK
binding result [1]: binds

B2
Kd [2]: 13 nM | kon [3]: 114000 M⁻¹ s⁻¹ | Kd [4]: ~13 nM | koff [5]: 0.0015 s⁻¹

B3: FZD5^CRD-Fc (recombinant human, Sino Biologics) (Fc fusion, UniProt Q13467 27-167, looked up)
chain: ASKAPVCQEITVPMCRGIGYNLTHMPNQFNHDTQDEAGLEVHQFWPLVEIQCSPDLRFFLCSMYTPICLPDYHKPLPPCRSVCERAKAGCSPLMRQYGFAWPERMSCDRLPVLGRDAEVLCMDYNRSEATTAPPRPFPAKP
notes: domain: CRD; also called CRD5; CRD5-Fc; not shown: Fc tag of the bought protein
binding result [6]: binds | binding result [7]: binds

B4: FZD4^CRD-Fc (recombinant human, Sino Biologics) (Fc fusion)
chain: FGDEEERRCDPIRISMCQNLGYNVTKMPNLVGHELQTDAELQLTTFTPLIQYGCSSQLQFFLCSVYVPMCTEKINIPIGPCGGMCLSVKRRCEPVLKEFGFAWPESLNCSKFPPQNDHNHMCMEGPGDEEVPLPHKTPIQPGEE
notes: domain: CRD
binding result [8]: binds

B5: FZD8^CRD-Fc (recombinant human, R&D Systems) (Fc fusion)
chain: ASAKELACQEITVPLCKGIGYNYTYMPNQFNHDTQDEAGLEVHQFWPLVEIQCSPDLKFFLCSMYTPICLEDYKKPLPPCRSVCERAKAGCAPLMRQYGFAWPDRMRCDRLPEQGNPDTLCMDYNRTDLTT
notes: domain: CRD
binding result [8]: binds

B6: TcdB fragment 1071-1512 (other)
chain: LTTATTAIITSSLGIASGFSILLVPLAGISAGIPSLVNNELVLRDKATKVVDYFKHVSLVETEGVFTLLDDKIMMPQDDLVISEIDFNNNSIVLGKCEIWRMEGGSGHTVTDDIDHFFSAPSITYREPHLSIYDVLEVQKEELDLSKDLMVLPNAPNRVFAWETGWTPGLRSLENDGTKLLDRIRDNYEGEFYWRYFAFIADALITTLKPRYEDTNIRINLDSNTRSFIVPIITTEYIREKLSYSFYGSGGTYALSLSQYNMGINIELSESDVWIIDVDNVVRDVTIESDKIKKGDLIEGILSTLSIEENKIILNSHEINFSGEVNGSNGFVSLTFSILEGINAIIEVDLLSKSYKLLISGELKILMLNSNHIQQKIDYIGFNSELQKNIPYSFVDSEGKENGFINGSTKEGLFVSELPDVVLISKVYMDDSKPSFGYYSNN
binding result [9]: no binding

B7: TcdB fragment 1430-1804 (other)
chain: SGELKILMLNSNHIQQKIDYIGFNSELQKNIPYSFVDSEGKENGFINGSTKEGLFVSELPDVVLISKVYMDDSKPSFGYYSNNLKDVKVITKDNVNILTGYYLKDDIKISLSLTLQDEKTIKLNSVHLDESGVAEILKFMNRKGNTNTSDSLMSFLESMNIKSIFVNFLQSNIKFILDANFIISGTTSIGQFEFICDENDNIQPYFIKFNTLETNYTLYVGNRQNMIVEPNYDLDDSGDISSTVINFSQKYLYGIDSCVNKVVISPNIYTDEINITPVYETNNTYPEVIVLDANYINEKINVNINDLSIRYVWSNDGNDFILMSTSEENKVSQVKIRFVNVFKDKTLANKLSFNFSDKQDVPVSEIILSFTPSYY
binding result [9]: no binding

B8: TcdB fragment 1454-1804 (other)
chain: SELQKNIPYSFVDSEGKENGFINGSTKEGLFVSELPDVVLISKVYMDDSKPSFGYYSNNLKDVKVITKDNVNILTGYYLKDDIKISLSLTLQDEKTIKLNSVHLDESGVAEILKFMNRKGNTNTSDSLMSFLESMNIKSIFVNFLQSNIKFILDANFIISGTTSIGQFEFICDENDNIQPYFIKFNTLETNYTLYVGNRQNMIVEPNYDLDDSGDISSTVINFSQKYLYGIDSCVNKVVISPNIYTDEINITPVYETNNTYPEVIVLDANYINEKINVNINDLSIRYVWSNDGNDFILMSTSEENKVSQVKIRFVNVFKDKTLANKLSFNFSDKQDVPVSEIILSFTPSYY
binding result [9]: no binding

B9: TcdB fragment 1510-1688 (other)
chain: SNNLKDVKVITKDNVNILTGYYLKDDIKISLSLTLQDEKTIKLNSVHLDESGVAEILKFMNRKGNTNTSDSLMSFLESMNIKSIFVNFLQSNIKFILDANFIISGTTSIGQFEFICDENDNIQPYFIKFNTLETNYTLYVGNRQNMIVEPNYDLDDSGDISSTVINFSQKYLYGIDSCV
binding result [9]: no binding

B10: TcdB fragment 1510-1804 (other)
chain: SNNLKDVKVITKDNVNILTGYYLKDDIKISLSLTLQDEKTIKLNSVHLDESGVAEILKFMNRKGNTNTSDSLMSFLESMNIKSIFVNFLQSNIKFILDANFIISGTTSIGQFEFICDENDNIQPYFIKFNTLETNYTLYVGNRQNMIVEPNYDLDDSGDISSTVINFSQKYLYGIDSCVNKVVISPNIYTDEINITPVYETNNTYPEVIVLDANYINEKINVNINDLSIRYVWSNDGNDFILMSTSEENKVSQVKIRFVNVFKDKTLANKLSFNFSDKQDVPVSEIILSFTPSYY
binding result [9]: no binding

B11: TcdB fragment 1688-1835 (other)
chain: VNKVVISPNIYTDEINITPVYETNNTYPEVIVLDANYINEKINVNINDLSIRYVWSNDGNDFILMSTSEENKVSQVKIRFVNVFKDKTLANKLSFNFSDKQDVPVSEIILSFTPSYYEDGLIGYDLGLVSLYNEKFYINNFGMMVSGL
binding result [9]: no binding
